In the experiment the target is BCMA (B cell maturation antigen) protein on the cell surface of human multiple myeloma cells (human) (UniProt Q02223). As to the kind of experiment: FACS on OPM-2 cells, Alexa488-labeled antibody.

From patent publication US20160131655A1 come the findings set out here.

UniProt Q02223, sequence (Q02223 whole entry N81S): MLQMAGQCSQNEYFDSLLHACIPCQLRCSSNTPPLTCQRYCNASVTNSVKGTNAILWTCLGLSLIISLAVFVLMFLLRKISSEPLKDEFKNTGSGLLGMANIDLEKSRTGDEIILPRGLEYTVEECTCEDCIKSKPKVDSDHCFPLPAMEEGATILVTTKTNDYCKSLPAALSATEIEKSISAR

Turning to “anti-BCMA antibody MAB193 (clone 335004, rat IgG2a, R&D Systems #MAB193)”, the Mean Fluorescence Signal was 371.

Turning to “anti-BCMA antibody Vicky-1 (rat IgG1, GeneTex #GTX17323)”, the Mean Fluorescence Signal came to 609.
